1 substance from patent publication US20220267442A1 can be followed below.

This test has as its target TGFβ1 (human) (UniProt P01137). Description: SPR.

The term Kd denotes the equilibrium constant for the complex coming apart.

Chain of TGFβ1 (human) (P01137 279-390): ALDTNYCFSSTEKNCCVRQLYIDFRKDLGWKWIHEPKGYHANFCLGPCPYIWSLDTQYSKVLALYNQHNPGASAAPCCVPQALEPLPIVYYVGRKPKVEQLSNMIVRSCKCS

Take αTGF-β (1D11): the Kd was determined as 26.6 nM.
